Measurements: patent US20250152743A1, “SYNPOPTOSIS CIRCUITS FOR PROGRAMMABLE CELL DEATH CONTROL” (California Institute of Technology, priority 2023, published 2025)

B1: AND-gated caspase-3: TEVP-activatable caspase-3 fused to a TVMVP-removable degron; SEQ ID NO: 23 (protein)
chain: MGSENTENSVDSKSIKNLEPKIIHGSESMDSGISLDNSYKMDYPEMGLCIIINNKNFHKSTGMTSRSGTDVDAANLRETFRNLKYEVRNKNDLTREEIVELMRDVSKEDHSKRSSFVCVLLSHGEEGIIFGTNGPVDLKKITNFFRGDRCRSLTGKPKLFIIQACRGTELDCGIETENLYFQSGVDDDMACHKIPVEADFLYAYSTAPGYYSWRNSKDGSWFIQSLCAMLKQYADKLEFMHILTRVNRKVATEFESFSFDATFHAKKQIPCIVSMLTKELYFYHGGSGLETVRFQSGSGSISLIAALAVDYVIGMENAMPWNLPADLAWFKRNTLNKPVIMGRHTWESIGRPLPGRKNIILSSQPSTDDRVTWVKSVDEAIAACGDVPEIMVIGGGRVIEQFLPKAQKLYLTHIDAEVEGDTHFPDYEPDDWESVFSEFHDADAQNSHSYCFEILERR
B2: Caspase3_v2.2: nCasp3-tevs-nHalo-tevs-cHalo-tevs-cCasp3-CAAX; SEQ ID NO: 45 (protein)
chain: MENTENSVDSKSIKNLEPKIIHGSESMDSGISLDNSYKMDYPEMGLCIIINNKNFHKSTGMTSRSGTDVDAANLRETFRNLKYEVRNKNDLTREEIVELMRDVSKEDHSKRSSFVCVLLSHGEEGIIFGTNGPVDLKKITNFFRGDRCRSLTGKPKLFIIQACRGTELDCGIETENLYFQSEIGTGFPFDPHYVEVLGERMHYVDVGPRDGTPVLFLHGNPTSSYVWRNIIPHVAPENLYFQSTHRCIAPDLIGMGKSDKPDLGYFFDDHVRFMDAFIEALGLEEVVLVIHDWGSALGFHWAKRNPERVKGIAFMEFIRPIPTWDEWPEFARETFQAFRTTDVGRKLIIDQNVFIEGTLPMGVVRPLTEVEMDHYREPFLNPVDREPLWRFPNELPIAGEPANIVALVEEYMDWLHQSPVPKLLFWGTPGVLIPPAEAARLAKSLPNCKAVDIGPGLNLLQEDNPDLIGSEIARWLSTLEISENLYFQSGVDDDMACHKIPVEADFLYAYSTAPGYYSWRNSKDGSWFIQSLCAMLKQYADKLEFMHILTRVNRKVATEFESFSFDATFHAKKQIPCIVSMLTKELYFYHSTGGSSGGGGRSKLNPPDESGPGCMSCKCVLS
B3: caspase-3 variant designed to activate in the presence of Input 1 and the absence of Input 2: TEVP-removable degron on small subunit, TVMVP-activatable N-degron on large subunit (SEQ ID NOs: 25, 26) (protein)
chain 1: MGSETVRFQYHKSGAWKLPVSLVKEQLEKKLQALEKKLAQLEWKNQALEKKLAQENTENSVDSKSIKNLEPKIIHGSESMDSGISLDNSYKMDYPEMGLCIIINNKNFHKSTGMTSRSGTDVDAANLRETFRNLKYEVRNKNDLTREEIVELMRDVSKEDHSKRSSFVCVLLSHGEEGIIFGTNGPVDLKKITNFFRGDRCRSLTGKPKLFIIQACRGTELDCGIETD
chain 2: MGSSGVDDDMACHKIPVEADFLYAYSTAPGYYSWRNSKDGSWFIQSLCAMLKQYADKLEFMHILTRVNRKVATEFESFSFDATFHAKKQIPCIVSMLTKELYFYHGGSGALKKELQANKKELAQLKWELQALKKELAQGGSGLENLYFQSGSGSISLIAALAVDYVIGMENAMPWNLPADLAWFKRNTLNKPVIMGRHTWESIGRPLPGRKNIILSSQPSTDDRVTWVKSVDEAIAACGDVPEIMVIGGGRVIEQFLPKAQKLYLTHIDAEVEGDTHFPDYEPDDWESVFSEFHDADAQNSHSYCFEILERR
B4: OR-gated caspase-3: tandem TEVP and TVMVP cleavage sites at the inter-subunit linker of caspase-3; SEQ ID NO: 24 (protein)
chain: MGSENTENSVDSKSIKNLEPKIIHGSESMDSGISLDNSYKMDYPEMGLCIIINNKNFHKSTGMTSRSGTDVDAANLRETFRNLKYEVRNKNDLTREEIVELMRDVSKEDHSKRSSFVCVLLSHGEEGIIFGTNGPVDLKKITNFFRGDRCRSLTGKPKLFIIQACRGTELDCGIETENLYFQSETVRFQSGVDDDMACHKIPVEADFLYAYSTAPGYYSWRNSKDGSWFIQSLCAMLKQYADKLEFMHILTRVNRKVATEFESFSFDATFHAKKQIPCIVSMLTKELYFYH
B5: Caspase3_v2.1: nHalo-tevs-Casp3te-tevs-cHalo-CAAX; SEQ ID NO: 44 (protein)
chain: MEIGTGFPFDPHYVEVLGERMHYVDVGPRDGTPVLFLHGNPTSSYVWRNIIPHVAPGSENLYFQSGSENTENSVDSKSIKNLEPKIIHGSESMDSGISLDNSYKMDYPEMGLCIIINNKNFHKSTGMTSRSGTDVDAANLRETFRNLKYEVRNKNDLTREEIVELMRDVSKEDHSKRSSFVCVLLSHGEEGIIFGTNGPVDLKKITNFFRGDRCRSLTGKPKLFIIQACRGTELDCGIETENLYFQSGVDDDMACHKIPVEADFLYAYSTAPGYYSWRNSKDGSWFIQSLCAMLKQYADKLEFMHILTRVNRKVATEFESFSFDATFHAKKQIPCIVSMLTKELYFYHSTGSENLYFQSGSTHRCIAPDLIGMGKSDKPDLGYFFDDHVRFMDAFIEALGLEEVVLVIHDWGSALGFHWAKRNPERVKGIAFMEFIRPIPTWDEWPEFARETFQAFRTTDVGRKLIIDQNVFIEGTLPMGVVRPLTEVEMDHYREPFLNPVDREPLWRFPNELPIAGEPANIVALVEEYMDWLHQSPVPKLLFWGTPGVLIPPAEAARLAKSLPNCKAVDIGPGLNLLQEDNPDLIGSEIARWLSTLEISGGSSGGGGRSKLNPPDESGPGCMSCKCVLS

Key:
[1] = test system: co-culture of engineered HEK cells that stably express Input 1, Input 2, or both, and wildtype cells; experiment: Synpoptosis gates in co-culture of four input-state cell lines, Annexin flow cytometry; assay type: cell-based, human; conditions: Input 1 TEVP (Cherry), Input 2 TVMVP (Citrine)
Protocol: As a proof of concept for combinatorial targeting, the synpoptosis gates were tested in a co-culture of engineered HEK cells that stably express Input 1, Input 2, or both, and wildtype cells that express neither. Input 1 with Cherry and Input 2 with Citrine were co-expressed, such that the two fluorescent protein profiles represented input patterns (FIG. 4C, Quadrant layout). The co-culture of the four cell lines were then transfected with the synthetic apoptosis gates to analyze their killing specificity. Transfections of no caspase-3 (FIG. 4C, Mock) and active caspase-3 (FIG. 4C, Indiscriminate) were used to establish background and ceiling apoptosis levels, respectively. […] Similar killing specificities were observed when the synthetic pyroptosis gates were transfected into the co-culture (FIG. 4D).
For experiments that required stable transgene expression, stable cell lines were engineered using lentiviruses followed by antibiotic selection, or using the PiggyBac transposase system. […] The next day, the cells were co-transfected using Lipofectamine 2000 with three plasmids, pLVX-M-PURO (Addgene plasmid #125839) containing the gene of interest, the TEVP-activatable Citrine reporter for instance, psPAX2 (Addgene plasmid #12260), and pCMV-VSV-G (Addgene plasmid #8454). We kept the mass ratio of the three plasmids at 9:9:2 (450 ng:450 ng:100 ng). In some experiments involving cells stably expressing two or more transgenes, the lentiviruses were generated using multiple pLVX-M-PURO plasmids carrying different genes of interest. An alternative ratio of pLVX-M-PURO:psPAX2:pCMV-VSV-G was 2:2:1 (2.4 μg:2.4 μg:1.2 μg), which was used to generate lentiviruses for stable integration of IL-1β and IL-18 genes. […] The RasGC line, or HEK293 cells stably expressing human H-Ras G12V mutant along with a Cerulean fluorescence marker, was generated using the PiggyBac method. […] One week later, the cells were sorted based on Cerulean fluorescence to obtain the final RasGC line. […]

[2] = Engineered Casp3 variants without input protease and with Ras sensor protease; conditions: without an input protease
Protocol: In this experiment, we tested the wild-type TEVP activatable Casp3 protein against the engineered Casp3 variants (v2.1 and v2.2) as described above. Each Casp3 variant was tested without an input protease and with a Ras sensor protease.

Molecule	killing specificity, Annexin staining [1]	background (TEVP-independent) cell death / Casp3 activation [2]	background (TEVP-independent) cell death / Casp3 activation ([2]; listed as v2.2)	background (TEVP-independent) cell death / Casp3 activation ([2]; listed as v2.1)
B1	triggered apoptosis predominantly in double-positive cells	–	–	–
B2	–	background Casp3 activation is reduced	reduced to statistically non-significant amounts	–
B3	restricted apoptosis to the corresponding cells	–	–	–
B4	caused apoptosis in single-positive and double-positive cells, sparing only double-negative cells	–	–	–
B5	–	making TEVP-independent Casp3 activation less likely	–	reduced to statistically non-significant amounts
